Legend:
[1] = target: SnoopCatcher (Streptococcus pneumoniae); experiment: time-course of isopeptide bond formation, SDS-PAGE densitometry, 1:1 ratio
[2] = target: SnoopCatcher (Streptococcus pneumoniae); experiment: time-course of isopeptide bond formation, SDS-PAGE densitometry, excess of SnoopTag-MBP

SnoopTag-MBP
reaction yield [1]: 80% | percent of SnoopCatcher consumed [2]: 100%

— patent publication US20180244730A1
